Laboratory results as given in the MegaScale stability set (Tsuboyama et al. 2023).

B1: EHEE_rd2_1257 (parent)
chain: EEERTFTNEEEARKAKKEAEKRGLRVTVTKDGTTWRVRIG

Variants of: B1
Experiment: folding stability dG (cDNA display proteolysis); higher = more stable
Conditions: PBS, room temperature

| Variant | folding stability dG [kcal/mol] |
| --- | --- |
| EEERTFTNEEEARKLKKEAEKRGLRVTVTKDGTTWRVRIG [A15L] | 2.02 |
| EEERTFTNEEEARKVKKEAEKRGLRVTVTKDGTTWRVRIG [A15V] | 1.72 |
| EEERTFTNEEEARKSKKEAEKRGLRVTVTKDGTTWRVRIG [A15S] | 0.987 |
| EEERTFTNEEEARKDKKEAEKRGLRVTVTKDGTTWRVRIG [A15D] | 0.155 |
| EEERTFTNEEEARKASKEAEKRGLRVTVTKDGTTWRVRIG [K16S] | 1.99 |
| EEERTFTNEEEARKAMKEAEKRGLRVTVTKDGTTWRVRIG [K16M] | 2.66 |
| EEERTFTNEEEARKAWKEAEKRGLRVTVTKDGTTWRVRIG [K16W] | 2.37 |
| EEERTFTNEEEARKAGKEAEKRGLRVTVTKDGTTWRVRIG [K16G] | 2.33 |
| EEEITFTNEEEARKAKKEAEKRGLRVTVTKDGTTWRVRIG [R4I] | 2.38 |
| EEETTFTNEEEARKAKKEAEKRGLRVTVTKDGTTWRVRIG [R4T] | 1.61 |
| EEERTFTNEEEARKAKKHAEKRGLRVTVTKDGTTWRVRIG [E18H] | 1.43 |
| EEERTFTNEEEARKAKKQAEKRGLRVTVTKDGTTWRVRIG [E18Q] | 1.64 |
| EEERTFTNEEEARKAKKEGEKRGLRVTVTKDGTTWRVRIG [A19G] | 1.06 |
| EEERTFTNEEEARKAKKEHEKRGLRVTVTKDGTTWRVRIG [A19H] | 1.06 |
| EEERTFTNEEEARKAKKEWEKRGLRVTVTKDGTTWRVRIG [A19W] | 2.02 |
| EEERTFTNEEEARKAKKEDEKRGLRVTVTKDGTTWRVRIG [A19D] | -0.295 |
| EEERTFTNEEEARKAKKEVEKRGLRVTVTKDGTTWRVRIG [A19V] | 0.703 |
| EEERTFTNEEEARKAKKELEKRGLRVTVTKDGTTWRVRIG [A19L] | 2.46 |
| EEERTFTNEEEARKAKKEAEKAGLRVTVTKDGTTWRVRIG [R22A] | 1.91 |
| EEERTFTNEEEARKAKKEAEKMGLRVTVTKDGTTWRVRIG [R22M] | 2.18 |
| EEERTFTNEEEARKAKKEAEKYGLRVTVTKDGTTWRVRIG [R22Y] | 1.69 |

| Variant | folding stability dG [kcal/mol] |
| --- | --- |
| EEERTFTNEEEARKAKKEAEKGGLRVTVTKDGTTWRVRIG [R22G] | 1.02 |
| EEERTFTNEEEARKAKKEAEKHGLRVTVTKDGTTWRVRIG [R22H] | 1.72 |
| EEERTFTNEEEARKAKKEAEKNGLRVTVTKDGTTWRVRIG [R22N] | 1.72 |
| EEERTFTNEEEARKAKKEAEKRGQRVTVTKDGTTWRVRIG [L24Q] | 1.41 |
| EEERTFTNEEEARKAKKEAEKRGLRVTVDKDGTTWRVRIG [T29D] | 1.2 |
| EEERTFTNEEEARKAKKEAEKRGLRVTVEKDGTTWRVRIG [T29E] | 1.87 |
| EEERTFTNEEEARKAKKEAEKRGLRVTVLKDGTTWRVRIG [T29L] | 1.8 |
| EEERTFTNEEEARKAKKEAEKRFLRVTVTKDGTTWRVRIG [G23F] | 0.9 |
| EEERTFTNEEEARKAKKEAEKRALRVTVTKDGTTWRVRIG [G23A] | 0.188 |
| EEERTFTNEEEARKAKKEAEKRELRVTVTKDGTTWRVRIG [G23E] | -0.609 |
| EEERYFTNEEEARKAKKEAEKRGLRVTVTKDGTTWRVRIG [T5Y] | 2.17 |
| EEERAFTNEEEARKAKKEAEKRGLRVTVTKDGTTWRVRIG [T5A] | 1.49 |
| EEERNFTNEEEARKAKKEAEKRGLRVTVTKDGTTWRVRIG [T5N] | 1.29 |
| EEERTFTNEGEARKAKKEAEKRGLRVTVTKDGTTWRVRIG [E10G] | 1.81 |
| EEERTFTNEREARKAKKEAEKRGLRVTVTKDGTTWRVRIG [E10R] | 2.23 |
| VEERTFTNEEEARKAKKEAEKRGLRVTVTKDGTTWRVRIG [E1V] | 2.57 |
| EEERTFTNEEEARKAKKEAEKRGLRVTVTKDGTTARVRIG [W35A] | -0.238 |
| EEERTFTNEEEARKAKKEAEKRGLRVTVTKDGTTYRVRIG [W35Y] | 1.35 |
| EEERTFTNEEEARKAKKEAEKRGLRVTVTKDGTTIRVRIG [W35I] | 1.3 |
| EEERTFTNEEEARKAKKEAEKRGLRVTVTKDGTTMRVRIG [W35M] | 0.332 |
| EEERTFTNEEEARKAKKEAEKRGLRVTVTKDGTTQRVRIG [W35Q] | -0.107 |

| Variant | folding stability dG [kcal/mol] |
| --- | --- |
| EEERTFTNEEEARKAKKEAEKRGLRVTVTKDGTTRRVRIG [W35R] | 0.023 |
| EEERTMTNEEEARKAKKEAEKRGLRVTVTKDGTTWRVRIG [F6M] | 0.184 |
| EEERTYTNEEEARKAKKEAEKRGLRVTVTKDGTTWRVRIG [F6Y] | 2.19 |
| EEERTFTNEEEARKAKKEAEKRGLRVTVTKDGTTWRVRTG [I39T] | 1.27 |
| EEERTFTNEEEARKAKKEAEKRGLRITVTKDGTTWRVRIG [V26I] | 0.589 |
| EEERTFTNEELARKAKKEAEKRGLRVTVTKDGTTWRVRIG [E11L] | 1.31 |
| EEERTFTNEEKARKAKKEAEKRGLRVTVTKDGTTWRVRIG [E11K] | 0.826 |
| EEERTFTNEEVARKAKKEAEKRGLRVTVTKDGTTWRVRIG [E11V] | 0.538 |
| EEERTFTNEETARKAKKEAEKRGLRVTVTKDGTTWRVRIG [E11T] | 0.995 |
| EEERTFTNEERARKAKKEAEKRGLRVTVTKDGTTWRVRIG [E11R] | 0.608 |
| EEERTFTNEEEARKAKKEAEKRGLRVTVTKDGTFWRVRIG [T34F] | 2.53 |
| EEERTFTNEEEARKAKKEAEKRGLRVTVTKDGTGWRVRIG [T34G] | 1.83 |
| EEERTFTNEEEARKAKKEAEKRGLRVTVTKDGTTWRVRIK [G40K] | 2.07 |
| EEERTFTNEEEARKAKKEAEKRGLRVTVTKDGTTWRVRIY [G40Y] | 3.08 |
| EEERTFTNEEEARKAKKEAEKRGLRVTVTKDGTTWRVRII [G40I] | 2.71 |
| EEERTFTNEEEARKAKKEAEKRGLRVTVTNDGTTWRVRIG [K30N] | 1.9 |
| EEERTFTNEEEARKAKKEAEKRGLRVTVTSDGTTWRVRIG [K30S] | 2.14 |
| EEERTFTNEEEARKAKKEAEKRGLRVTVTDDGTTWRVRIG [K30D] | 1.24 |
| EEERTFTNEEEARKAKKEAEKRGLRVLVTKDGTTWRVRIG [T27L] | 1.58 |
| EEERTFTNEEEARKAKKEAEKRGLRVKVTKDGTTWRVRIG [T27K] | 1.43 |
| EEERTFTHEEEARKAKKEAEKRGLRVTVTKDGTTWRVRIG [N8H] | 1.34 |
